Measured values as given in article PMC5836505.

How the values were obtained:
GST-FUS [1] = biological target: T1, GST-FUS (Homo sapiens, UniProt P35637 1-526); test: EMSA
GST-FUS [2] = biological target: T1, GST-FUS; test: EMSA; remark: listed apart in the source
His-FUS = His-FUS (UniProt P35637 1-526); test: single-molecule TIRF
GST-FUS [3] = biological target: T1, GST-FUS; test: competition

T1 sequence (P35637 whole entry): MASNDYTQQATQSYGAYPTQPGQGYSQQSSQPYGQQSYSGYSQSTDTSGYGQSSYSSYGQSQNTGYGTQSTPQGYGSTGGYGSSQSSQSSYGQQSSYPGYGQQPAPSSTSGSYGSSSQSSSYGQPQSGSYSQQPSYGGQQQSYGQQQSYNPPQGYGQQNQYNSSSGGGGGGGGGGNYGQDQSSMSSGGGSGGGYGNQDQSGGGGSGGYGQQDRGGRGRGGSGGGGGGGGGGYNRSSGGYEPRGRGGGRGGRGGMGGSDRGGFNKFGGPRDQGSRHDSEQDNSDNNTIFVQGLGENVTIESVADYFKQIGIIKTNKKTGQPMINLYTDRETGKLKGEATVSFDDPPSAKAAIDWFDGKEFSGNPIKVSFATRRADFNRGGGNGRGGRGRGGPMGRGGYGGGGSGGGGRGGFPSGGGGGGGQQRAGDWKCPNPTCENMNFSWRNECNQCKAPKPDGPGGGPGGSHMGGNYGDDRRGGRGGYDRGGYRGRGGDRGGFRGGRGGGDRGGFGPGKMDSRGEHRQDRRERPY
Chain of His-FUS (P35637 whole entry): as above

Q: Does UUGUAUUUUGAGCUAGUUUGGUGAC (ssRNA) [GGUG oligo] bind (GST-FUS [1])?
A: Result: binds

Q: Does UAAUACUGCCGGGUAAUGAUGGA (ssRNA) [miR-200c (Cy5)] bind (GST-FUS [2])?
A: Result: binds

Q: Does UAAUACUGCCGGGUAAUGAUGGA (ssRNA) [miR-200c (Cy5)] bind (His-FUS)?
A: Result: binds

Q: Does UAAUACUGCCGGGUAAUGAUGGA (ssRNA) [miR-200c (untagged)] bind (GST-FUS [3])?
A: Result: binds
